Experiment: label from the status in PepcDB records
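Also: failed if final PepcDB status was selected cloned or expressed and not failed if soluble or beyond.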

Row | Sequence | protein production
1 | MPARPGAARERIRSTAAPAVGEKVLNALRDLPAGMIYTLGAKPTVLRGLALAIEKRVKGIDWSPDGATLFAEVMDGSRHHEVRLEANGGFLTPSCDCPLWRPTGHCPHVIAALAVLKKGLVHQAITSLRLDSDYLAEVSGWLSGVEAAQPTAPAVPRLVVERGADGIQARIWLGEHPVSIHDQALPRTVRDFLWTLLNPRESGFIIERYLEAFGDDAPMALRQDDNEIPLRFDRGRVHGTLTLLEQVRGMVIARKGLEDGHPIPDTCFAAYRYYFDIPAGAVRVIDSFEGWDLWNTINYEAAEWSLDTGVSVERNSRTISLPADAFNAIGLTVTEKGLPTILERIRFYGAGGPGEPARITHNYRLRVADMNDTTALLLAEGVYGDAAIPLSAGAFSFFTSRGRSTASVPLRTKKRSSAVIAGCFAALDCVTRAELERTIRHALAGDDFLKRTVKSEAKRIITAFAAACETRETTLLAADGAWLISVAEPKVEAQLLEIPYRLFGAEIFGSSDLAGAMTVNRDALFRQFPALHNRLAEAGFDLVLQDRPVEAVTLDVTLDATRSTLDWFELRPEIRCGTGELTEQEIAEAMASGGVFRRGDSFLLINEESSRILAMLYPEAGVKKRRKAEVVRIPRLQILDWLVLRHHGVSVRLSPEDERIFASLATFEEIPSSPLPERLQATLRHYQVDAFHWLAFLYTHRFGACLADDMGLGKTIQAISLLAALHEGTLPSRVPEPRPHLIVVPPSLLFNWENELARFYPAFTVLTYRGTGRSADFTGVDIVLTSYGIIPRDIGILAEIPFHCIVFDEAQAVKNIQADTTGACRRLRGAFTLCLTGTPVENHLGEYFSVMDLAVPGLLGSYEEFRRQAGNAAAPFLETLVRRTRPFVLRRSKQMIAAELPPKIETDIYLELTPRQKALYTRTVEEVRETVLEAWRGKSPGQARIIALTAILRLRQLCLSPRLLIADSREPSPKVEFLVEQLEELFTEGHSVLVFSQFTSFLDIVEGELSRRGVHYYRLDGSTPVPERKRLVTAFQKGDEPSVFLLSLKAGGKGLNLTRATYVFHLDPWWNPAVENQASDRAHRIGQTRQVTITRLVMRHTIEEKMMELKKRKLKLYHALLEENSAGDGGGISREDFEFLLG | failed
2 | MPARQSFTDLKNLVLCDIGNTRIHFAQNYQLFSSAKEDLKRLGIQKEIFYISVNEENEKALLNCYPNAKNIAGFFHLETDYVGLGIDRQMACLAVNNGVVVDAGSAITIDLIKEGKHLGGCILPGLAQYIHAYKKSAKILEQPFKALDSLEVLPKSTRDAVNYGMVLSVIACIQHLAKNQKIYLCGGDAKYLSAFLPHSVCKERLVFDGMEIALKKAGILECK | not failed
3 | MPATAGRVRMPANNRVHSSAALQTHGIWQSAIGYDPYAPTSKEEPKTTQQKTEDPENSYASFQGLLALARITGSNNDEARGSCKKCGRVGHLTFQCRNFLSTKEDKEKDPGAIEAAVLSGLEKIRRGVGKGEVEEVSSEEEEESESSDSDVDSEMERIIAERFGKKKGGSSVKKTSSVRKKKKRVSDESDSDSDSGDRKRRRRSMKKRSSHKRRSLSESEDEEEGRSKRRKERRGRKRDEDDSDESEDEDDRRVKRKSRKEKRRRRSRRNHSDDSDSESSEDDRRQKRRNKVAASSDSEANVSGDDVSRVGRGSSKRSEKKSRKRHHRKERE | failed
4 | MPCDFPGCGRIFSNRQYLNHHKKYQHIHQKSFSCPEPACGKSFNFKKHLKEHMKLHSDTRDYICEF | not failed
5 | MPCPPNVSMMLGKEGPAADSERVTLWRDHHLSHTHAVLWTVILVATVGDILLTMTGLTVGLQEGNAVVSTMLAEFGLAGLWLVKFGAMLWLVAGWRLLSERNATVFLALFAVVTLAVVAYNSVTILQYRGVITAVAGI | failed
6 | MPDACFSDGDPIVLVVLGYVVVVVAVLGGYALTGGHMGALYQPAELIIIGGAAVGAFISSNSGKAIKATMKAMPSLLKGSKYKKELYLDVMALLYVLLSKARREGILFLEKEIADPASSSVFSQYPRILADAKMMEFLTDYLRMMVNGNMNAFEIEALMDHEIETVRHEAEIPAHALSRVGDGLPAFGIVAAVMGVVHALASADLPPAELGALIANAMVGTFLGILLAYGFVSPLASRVEHQVSESIKMYECIKVTLLASLNGYAPLVAVEFGRKVLYSTVRPSFLELDDHVREVKSLT | failed
7 | MPDADVNDFELVDVDQKAADKAIKDLGVKATIDEVCTVGEEGYVVTATDKEGYGGDIKITVGITADGTINGISILSISETAGLGMRATEPAFYEQYQGKQAEKFVVSKDGGDGEPIDALSGATITSRAVTGAVNAALGYYQNAFLEHHHHHH | not failed
8 | MPDFVNLWIYLSSTPLFGLTATLTVYLSAHAMYLRLGQVPLANPVLWSMVVLAAGLLAFGVPYPTYFAGAQFIHFLLGPAVVALAWPLWMRRAELRRRWARLLWAALFGGAVACASAVLLGWAVGLPRDIILSLAPKSVTAPVAMGLSETLGGIPALSAVFAALTGLVGALTGKYLFDLLGAVRGRQDWADRGFALGTVSHGIGAARAIQVNADAGAYAGLALGLQVILASLLIPVAFRLAAGLGGS | failed
9 | MPDIDAGPRCRDAGSRMFRLAHLTDPHVGPLPRPRLRQLLSKRAAGYVNWRRGRSRHHDMDLLGALIADLHGQGVDHVACTGDLCNLGLPDEWESARVFLEALGPADRVSFVPGNHDAYVRGSLEGLLAACGGWTEADDGQIRLFPYLRRRGPLALVGLSSAIPTKPFVASGRLGPVQIEAAERVLRDLATAPDRPCRVVMIHHPPHPGGAASGRELKDAAAFAAMIGRAGADLILHGHNHVGTVARITGPDGRPVPVVGAPSASARTLLTNRRASYYLYTVTPGENGFQIAVTERGLDEAGGIGELSGFDIETPPADRIGLVHRRRQRHT | failed
10 | MPDIFQQEARGWLRCGAPPFAGAVAGLTTKHGGESKGPFASLNMGLHVGDDRTDVVNNRRRLAEWLAFPLERWVCCEQVHGADIQKVTKSDRGNGAQDFATAVPGVDGLYTDEAGVLLALCFADCVPIYFVAPSAGLVGLAHAGWRGTAGGIAGHMVWLWQTREHIAPSDIYVAIGPAIGPCCYTVDDRVVDSLRPTLPPESPLPWRETSPGQYALDLKEANRLQLLAAGVPNSHIYVSERCTSCEEALFFSHRRDRGTTGRMLAFIGRREEWT | not failed
11 | MPDIVNTEQAQAWNGPEGAHWARNQDRWNAVNEGFDEPLLDAAGITGEDRVLDLGCGSGQTTRRAALRAPRGHVLGLDLSGPMLAEARSRAEREGVANVSFAQGDAQVHPFGAGAFDAAVSRYGVMFFADPVAAFGNVGRALRPGGRLAFVCPADAALNGWVTAMASLREVLPVGDFGQPGLPGMFSLAAPDRIGDVLTAAGFAGIDVNQVQAHGTWGRDAEDAAEFLLGTGPGRHLMERADPTARARARGILTDHLRTHEAADGTVRLLSTSWLTTATRPAATA | failed
12 | MPDMPPTETNAIQDRLPRTTNSVEDTMALGARIAQGLSPGAVVALYGDLGTGKTHFVKGVAQGLGLPPAEVRSPTFTILAVHDDGDRPLYHFDAYRVQTPDEFVELGFETYVHGDGLTCIEWAGRVADLLPADTVPLQFHHVAPSTRRITLGAPDSSSSEDDR | failed
13 | MPELSVILAGFGDALAPINLLFILFGVALGQFVGAVPGIGPVMATAIAIPFTFGMDPLTGIAFLVGVNKGGLVGGAIPAVLLNTPGTPDAAATALDGYPLAKQGKPLKATKMALFSSITGDTFSDIVLITVSAPMAILALRMGPVEVLGLMLLAFAVIAGLMGQSLVKGVVAIALGLMAAMVGTDPEHGSPRLIFGNYELYDGLPLASVAIGMLAISELLKRLSETRGTVRPAITLPRNQPRADRSVSWAEYWGCRFTMLRGAVIGTILGALPGIGSTAAAFMSYASARQASKEPESFGKGSLHGIAASESANSSVMGANMIPMLTLGIPGSVSAALIISAFMIHGIQPGPFLFSQQGQLVYGLFGAMIIANLINLWVGQLGLRFWVRVVSAPEPFIFASALLMCFVGVALASGGLFGIGVMLVFALLAYVMSAFGISVVVFIIAFFLGPRLEISLSQTLALLNGQPQKLLDYPFALVLMALALVTAVALARRRDTESETR | failed
14 | MPETAWLSDIETLTYLHATVSTHRHQVRVPETPMHLDAILADQVLTGGLEPRLGQAHLRTLTIMGFPSQTWPGLLDDLNRLAFDYRWVTRAICLDKTDAAKVLGRIRRQWFAKRKSIAAMLKEIMTNEASALMDSDAANKAVDADMALQELGSDLVGAAYVTATVTIWNDDPRIADERLRLVEKVIQGRDFTCMVERVNAVEAWLGSLPGHVYANVRQPPVSTLNLAHMMPFSAVWAGPERDEHFDAPPLFLAKTEGSTPFRFSLHVGDVGHTLVVGPTGAGKSVLLALMALQFRRYARSQIFAFDFGGSIRAAALAMRGDWHDLGGSLAEDASEPVALQPLAGIDAEEERAWAAEWVAAILAREKVEITPDVKEHVWSALNNLASAPKSERTLTGLSVLLQSQALKQALKPYCVGGPWGRLLDAETERVGSADVLAFETEGLIGTGAAAAVLAYLFHRIEHRLDGRPTLLIVDEGWLALDDEGFASQLREWLKTLRKKNASVIFATQSLADIDGSAIAPAIIESCPTRLFLPNERALEPQIATIYERFGLNDRQIEILSRATPKRDYYCQSRRGNRLFELGLGEVALAFTAASSKGDQILIARLMAEHGPTGFAKAWLEARGVAWATDLIITPQKEKLPLEHHHHHH | not failed
15 | MPETSSMLESVVAYLQQAEPSSVYAVLFLSAYFENVIPPIPGDVPIALAGYLLTFSHITFVAALFWSTIGSVAGFMTVFLLSRFLGLKLYAVGECEARHKFAQSIHKLFPPSEMEVVRQKFSGHGYLAVVVNRFLFGSRAVICIVAGMLHLKIPLVLAASFVSSLLWNILLLSTGYLLGSNWDKIGQYAVLYTAPFTILFTGFIVWKVVAYLKKRKQQADGA | failed
16 | MPFPPEVYVLLVAALPVVELRGAIPLGVALGLSPWESFLWALLGNLLVVPLALGLLPWAVGLATRMPLFARAWRALEVRVRLKGEAQVQRLGALGLFLFVAVPLPGTGAWSGAVLAVVLGVRRRYAFPALALGVVAAGLLVLLLTGGTVYGLNYLR | failed
17 | MPGDLPMPTTMFTADELAVIRRAYAHQVMATAATTNPRIEAAFATVPREKFLGAPPWQIANLGGGNRPLPSSDLVLAYQDVLFALQPDNGVNNGSPSLHARLLAELDIQIGDRIAHIGAGTGYYSAILAELVGTSGHVYAVEMDPDLAAHAQAALAERANVSVINADGSQWPQQEVDAIYVNFAVARPAEPWIERLRPGGRLVLPLGVPRQDRPPKGGRHASHGAALRIEHGEGGFAARWIGTAYFVCANGGLTIDDNEIEALTAAFRRGGIEFVKSLLWKTEPRIGRCWHIGGQWALCYDDV | failed
18 | MPGEPGISTRPFSHCERGTTTRCGEGDAHVTVVISHLLVPATVSTVVTSSSFDRLQALLQRPAVASISPALREALARAWQELPPAQTDNVPWALLGDTLDALALLAADEATLIAALLFDLPALRGAVTDLPWQPAERRVAVEGLLDGLDAADQVWALHAGREAGRNSEGLRRLLLSIIHDLRVVPILLARQLSRMRVADRLSKEQRHALAQLTRDIHAPLANRLGIWQVKWELEDLAFRHLEPDTYRRIAREVDETRVARERYLEAVKRTLSAALAQQGLRADVSGRPKHIYSIWRKMQKKRLSFDQLYDIRAVRVMVDDVAACYAALGAVHSLWAPVPSEFDDYIARPKANDYRSLHTAVVGPEGRTIEIQIRTHEMHAQAELGVAAHWKYKEGGKGGEKAFDRKILWMRQLLEQVQEGEHGELAGALDAELIEDRVYALTPKGEVIDLPQGATPLDFAYHVHTMVGHRCRGARVNDRIVPLTYRLRSGDRVEIMTAKEADPRRDWLLASNGFLASGRSRDKVRAWFHKLDRARNVQAGKDLLDRELKRLGLQHADLSVATRKFHADTIDDLYIQVALGDTGPNQVSRALLEAERAASQPAVPAPPRPTARREGLGKSKFTVEGVGNLLVQLARCCQPVAGEPIAGYLTRGRGITVHRTDCAALARLAAAHPQRVLPVEWGKAGTGYEVDVQVRAVDRRWLLKDITNLIAQEDAHVLEINSDNVRDTGRAQLRLRLKVSDYDQLSGLLGKLDALPGVSEVRRLG | failed
19 | MPGFEVLYQAAALCLTYPDDDFRARLPLLREAAPQLRGFTDHAAATGQGELQAHYVEVFDFRNRHSLYLSWWTDGDTRNRGMSLVRFKELYRAHGLEFTGEELPDFLPAVLEFVSRTGDMGMLTEHRDALDQLRARLTAFGTPYACVLDAVCATLPPAPTGARR | failed

— a protein production outcome set (Wang et al. 2014)
